Reference: article PMC8934265
Changes are numbered by the printed parent chain.

Columns and labels:
[1] = biological target: T1, NFYA-1 (T08D10.1), MBP fusion;NFYB-1, MBP fusion;NFYC-1, MBP fusion (Caenorhabditis elegans;Caenorhabditis …, UniProt G5EEG1;O17286;O17072 1-482;1-403;1-232, ||); assay: EMSA
T1 sequence 1: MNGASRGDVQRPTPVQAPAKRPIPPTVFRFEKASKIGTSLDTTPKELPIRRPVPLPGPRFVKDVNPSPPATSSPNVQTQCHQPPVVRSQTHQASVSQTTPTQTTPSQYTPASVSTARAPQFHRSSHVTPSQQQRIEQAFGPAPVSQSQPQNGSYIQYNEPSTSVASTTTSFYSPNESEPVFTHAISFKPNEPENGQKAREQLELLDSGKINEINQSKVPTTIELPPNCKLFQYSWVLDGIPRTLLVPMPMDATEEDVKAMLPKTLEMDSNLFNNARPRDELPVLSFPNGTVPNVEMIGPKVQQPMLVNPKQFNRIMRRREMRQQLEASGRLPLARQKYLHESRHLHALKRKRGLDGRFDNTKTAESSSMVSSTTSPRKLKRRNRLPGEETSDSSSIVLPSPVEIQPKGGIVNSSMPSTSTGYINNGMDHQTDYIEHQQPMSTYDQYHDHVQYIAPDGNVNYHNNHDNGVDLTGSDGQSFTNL
T1 sequence 2: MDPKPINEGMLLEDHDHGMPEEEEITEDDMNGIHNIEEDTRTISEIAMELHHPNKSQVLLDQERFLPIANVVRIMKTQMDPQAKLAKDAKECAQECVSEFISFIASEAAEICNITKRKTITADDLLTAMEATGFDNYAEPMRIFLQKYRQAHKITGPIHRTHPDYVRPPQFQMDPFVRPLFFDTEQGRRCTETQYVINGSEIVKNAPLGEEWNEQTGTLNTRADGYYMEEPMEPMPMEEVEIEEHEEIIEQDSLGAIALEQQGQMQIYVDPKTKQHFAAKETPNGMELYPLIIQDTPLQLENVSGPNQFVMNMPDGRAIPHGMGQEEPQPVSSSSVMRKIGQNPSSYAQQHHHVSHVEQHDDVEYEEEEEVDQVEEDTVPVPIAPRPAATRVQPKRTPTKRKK
T1 sequence 3: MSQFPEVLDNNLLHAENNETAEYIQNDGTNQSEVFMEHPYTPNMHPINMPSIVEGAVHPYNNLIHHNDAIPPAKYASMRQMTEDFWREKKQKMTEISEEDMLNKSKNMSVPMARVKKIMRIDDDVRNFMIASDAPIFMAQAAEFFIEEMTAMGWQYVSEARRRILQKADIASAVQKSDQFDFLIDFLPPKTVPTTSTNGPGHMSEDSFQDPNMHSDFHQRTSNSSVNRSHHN

[2] = biological target: T1, NFYA-1 (T08D10.1), MBP fusion;NFYB-1, …; assay: competition
[3] = biological target: T1, NFYA-1 (T08D10.1), MBP fusion;NFYB-1, …; assay: competition; remark: listed apart in the source

B1: CCAAT box probe (dsDNA)
DNA 1: AGTTGTAGGCCTCTGCTTCCTGACCAATCTACAGAATAGGCTCCGCCTTC
DNA 2: AGTTGAAGGCGGAGCCTATTCTGTAGATTGGTCAGGAAGCAGAGGCCTAC
[1]
  binding result: binds

B2: CCAAT box wild-type competitor (+CAAT) (dsDNA)
DNA 1: B1 DNA 1
DNA 2: B1 DNA 2
[2]
  binding result: binds

B3: CCAAT box mutant competitor (+mut) (dsDNA)
DNA 1: B1 DNA 1 with C25A, A26T, A27G
DNA 2: B1 DNA 2 with T28C, T29A, G30T
[3]
  binding result: no binding
